Assay results from patent US20140056918A1 (Novo Nordisk, published 2014).
Numbering of substitutions follows the chain as printed.

T1: Human OSCAR (osteoclast-associated receptor), full length, on cells (human)
T1 chain: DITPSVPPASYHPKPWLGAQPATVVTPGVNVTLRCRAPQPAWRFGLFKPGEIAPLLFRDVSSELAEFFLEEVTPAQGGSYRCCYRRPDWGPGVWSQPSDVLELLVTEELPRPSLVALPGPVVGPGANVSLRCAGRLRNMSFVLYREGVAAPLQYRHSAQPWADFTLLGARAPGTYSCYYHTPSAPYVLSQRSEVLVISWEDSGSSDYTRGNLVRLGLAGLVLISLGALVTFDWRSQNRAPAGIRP

T2: Human OSCAR-ECD (recombinant extracellular domain of human OSCAR) (human, UniProt Q8IYS5 19-218)
T2 construct: also called OSACAR-ECD
T2 chain: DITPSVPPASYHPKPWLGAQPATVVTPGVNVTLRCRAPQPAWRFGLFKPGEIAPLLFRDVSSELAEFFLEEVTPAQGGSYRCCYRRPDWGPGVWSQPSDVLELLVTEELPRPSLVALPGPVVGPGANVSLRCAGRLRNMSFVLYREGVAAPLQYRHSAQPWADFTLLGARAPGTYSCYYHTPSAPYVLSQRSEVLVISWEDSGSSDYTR

B1: 7F6A1 (antibody, V domains shown)
VH: DVKLVESGGGLVKPGGSLKLSCAASGFTFSSYVMSWVRQTPEKRLEWVATISSGGSYTYYPDSVKGRFTISRDNAKNTLYLQMSSLKSEDTAMYYCTREGGNSPDYWGQGTTLTVSS
VL: ENVLTQSPAIMSASPGEKVTMTCSVSSSISYMHWYRQKSFTSPQLWIYDTSKLASGVPGRFSGSGSGISYSLTISSMEAEDVATYYCFQGSEYPLTFGAGTKLELKR
notes: Mouse anti-human OSCAR mAb; The heavy chain entry covers only VH-CH1 and the start of the hinge
B2: 7F10A1 (antibody, V domains shown)
VH: QVQLQQSGAELARPGASVKLSCKASGYTFTDNYINWVKQRTGQGLEWIGEIYPGSGNTYYNEKFKGKATLTADKSSSTAYMQLSSLTSEDSAVYFCARSANRYDRGDFDYWGQGTPLTVSS
VL: QILLTQSPAIMSASPGEKVTMTCSASSSVSYMHWYQQKPGSSPKPWIYDTSNLASGFPARFSGSGSGTSYSLIISSMEAEDAATYYCHQRSSYPYTFGGGTKLEIKR
notes: as for B1
B3: 7F14A1 (antibody, V domains shown)
VH: QVQLKESGPGLVAPSQSLSITCSVSGFSLTSYGVHWVRQPPGKGLEWLGVMWAGGSTNYNSALMSRLSISKDNSKSQVFLKMNSLQTDDSAMYYCALQKGYGNYFDYWGQGTTLTVSS
VL: QIVLTQSPAIMSASPGEKVTMTCSASSSVNYMHWYQQKSGTSPKRWIYDTSNLASGVPTRFSGSGSGTSYSLTISSMEAEDAATYYCQQWSSDPLTFGAGTKLELKR
notes: Mouse anti-human OSCAR mAb; also called 7F14A4
B4: 7F1A1 (antibody, V domains shown)
VH: QVQLQQSGAELVRPGTSVKVSCKASGYAFTNYMIEWVKKRPGQGLEWIGVINPGSGGTNYNEKFENKATLTADKSSSTAYMQLSSLTSDDSAVYFCARSLDFDGAWFAYWGQGTLVTVSA
VL: DIQMTQSPASLSVSVGETVTITCRASEKIYSNLAWYQQKQGKSPQLLVYAATNLADGVPSRFSGSGSGTQFSLKINSLQPEDFGSYYCQHFWGIPWTFGGGTKLEIKR
notes: as for B1
B5: 7F21A1 (antibody, V domains shown)
VH: QVQLQQSGAELVRPGTSVKVSCRSSGYAFTNYLIEWIKQRPGQGLEWIGVITPGSGGTNYNENFKDKATLTADKSSNTAYMQLTSLTSDDSAVYFCARSFDYDGAWFAYWGQGTLVTVSA
VL: B4 VL with S77N, P80S, I94T
notes: as for B1
B6: 16F119 (antibody, V domains shown)
VH: QVQLVQSGAEVKKPGSSVKVSCKVSGGTFSNYAISWVRQAPGQGLEWMGRIIPILGIAAYAQRFRDRVTITADKFTSTVYMELSSLRSEDTAVYYCASGQLGTPYWYFDLWGRGTLVTVSS
VL: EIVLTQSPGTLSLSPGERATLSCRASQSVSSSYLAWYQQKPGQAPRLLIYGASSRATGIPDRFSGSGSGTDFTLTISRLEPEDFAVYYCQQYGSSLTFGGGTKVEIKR
notes: Fully human mAb from HuMab mice; also called 16F119 (Hu); 16F119A5
B7: 16F56 (antibody, V domains shown)
VH: QVQLVQSGAEVKKPGSSVKVSCKASGGTFSNYAISWVRQAPGQGLEWMGRIIPILGIAHNAQKFQDRVTITADKSTSTAYMELSSLRSEDTAVYYCASPSSGKGLPYWFFDLWGRGTLVTVSS
VL: DIQMTQSPSFLSASVGDRVTITCRASQSISSYLNWYQQKPGKAPKLLIYAASSLQSGVPSRFSGSGSGTDFTLTISSLQPEDFATYYCQCGYSTPLTFGGGTKVEIKR
notes: Fully human mAb from HuMab mice; also called 16F56 (Hu); 16F56A2
B8: 6F6B (antibody, V domains shown)
VH: EVQLQQSGAELVKPGASVKLSCTASGFNIKDTYVHWVKQRPDQGLEWIGRIDPAIGNTKYDPKFRGKATITADSSSNTAYLQLSSLTSEDTAVYYCARLSYGNYGLDYSMDYWGQGTSVTVSS
VL: DIVLTQSPATLSVTPGDSVSLSCRASQSITNNLHWYQQKSHESPRLLIKYASQSISGIPSRFRGSGSGTDFTLSINSVETEDFGVYFCQQSNTWPRTFGGGTKLEIKR
notes: Mouse anti-OSCAR mAb
B9: 6F3A (antibody, V domains shown)
VH: B8 VH
VL: B8 VL
notes: Mouse anti-OSCAR mAb

What was measured:
[1] = biological target: T1, Human OSCAR (osteoclast-associated …); experiment: cell-based or functional assay
[2] = biological target: T1, Human OSCAR (osteoclast-associated …); experiment: flow cytometry on primary human monocytes, donor #1
Experimental: (§1) Cell number and viability were determined using a Cedex cell counter. The cells were diluted in washing buffer (1×PBS (—Ca²⁺/—Mg²⁺)+5% FBS+0.1% Na-azide) to […]. In the case of monocytes, the cells were further blocked by adding 10 μl of a hFcR blocker (Miltenyi, #130-059-901) and incubated for 10 minutes at 4° C. 50 μl of cells (50.000 cells/well) were seeded into 96 well round-bottomed microtiter plates. Hybridoma supernatants or purified antibodies (in serial dilutions) were added to the cells at 50 μl/well. The isotype-matched purified irrelevant human mAb or mouse mAb served as negative controls (mouse IgG1, BD, #553452; mouse IgG2a, BD, #557353; mouse IgG2b, BD, #557352). […] Cells were washed in PBS, re-suspended in fixation buffer (1×PBS (—Ca²⁺/—Mg²⁺), pH7.2+1% formalin (B&B, #LAB96751.0500) and analysed by FACS flow cytometer. EC₅₀ values were calculated using a GraphPad Prism 5 software.

[3] = biological target: T1, Human OSCAR (osteoclast-associated …); experiment: flow cytometry on primary human monocytes, donor #2
Experimental: as §1

[4] = biological target: T2, Human OSCAR-ECD (recombinant …); experiment: SPR competition, 50 nM OSCAR-ECD premixed with mAb, over immobilised collagen I
Experimental: (§2) The experiment was performed using a Biacore T 100 instrument (GE Healthcare). Human collagen 1 (Sigma, # C5483) and human collagen 2 (Millipore #CC052) were diluted with 10 mM NaOAc, pH 4.5 and immobilized on a Biacore CM3 sensor chip (GE Healthcare) using amine coupling chemistry (GE Healthcare). Immobilization was performed according to the standard procedure, but at 5° C. in order to prevent aggregation collagens, with immobilized levels of ca 250 RU on flow cells (FC) 2 and 4. A blank immobilization was performed on FC 1 & 3, which were used as reference cells. HBS-EP buffer (10 mM HEPES, 150 mM NaCl, 3 mM EDTA, 0.05% Polysorbat P20, pH7.4) was used as running buffer for the immobilization. Buffer containing HBS-EP/+0.1% BSA was used for the competition assay. The competition experiment was performed at 5° C. at a flow rate of 50 μl/min. […] OSCAR was mixed with various concentrations of anti-OSCAR antibodies ranging from 0-10 μg/ml prior to injection. Binding curves were measured for 360 s followed by 240 s of dissociation. The chip surface was regenerated for 2×20 s with 10 mM glycine, pH 2.0 between assays.
(§3) Human collagen I and II were immobilized to the surface of a Biacore sensor chip by amine coupling. […] It was hypothesized that an antibody inhibiting binding of OSCAR to collagen would lead to a concentration-dependent loss of signal, whereas a non-inhibiting antibody would enhance the signal due to the increased mass of the OSCAR-antibody complex.

[5] = biological target: T2, Human OSCAR-ECD (recombinant …); experiment: SPR (Biacore T100), mAb coupled or captured on chip, OSCAR-ECD injected, 1:1 fit
Experimental: The kinetic parameters (kₐ, kd and KD) for the interaction were calculated using a 1:1 interaction Langmuir fitting model.

[6] = biological target: T2, Human OSCAR-ECD (recombinant …); experiment: SPR competition, 50 nM OSCAR-ECD premixed with mAb, over immobilised collagen II; set-up: unit not given here
Experimental: as §2, §3

Binder	IC50 (IL-8), ColI-induced IL-8 release from moDC, Donor 3 [1] [nM]	IC50 (IL-8), ColI-induced IL-8 release from moDC, Donor 5 [1] [nM]	IC50 (IL-8), ColI-induced IL-8 release from moDC, Donor 6 [1] [nM]	EC50 [2] [nM]	EC50 [3] [nM]	binding of OSCAR-ECD to collagen I with 10 µg/mL mAb [4]	Kd [5] [nM]	binding of OSCAR-ECD to collagen II with 10 µg/mL mAb [6]	IC50 (IL-8), ColI-induced IL-8 release from moDC, Donor 1 [1] [nM]	IC50 (IL-8), ColI-induced IL-8 release from moDC, Donor 4 [1] [nM]	IC50 (IL-8), ColI-induced IL-8 release from moDC, Donor 2 [1] [nM]
B1	0.91	2.49	1.28	3.48	0.14	19.2	2.7	19.3	–	–	–
B2	1.59	–	–	1.2	0.12	55	18	102	0.49	2.06	–
B3	0.62	–	–	2.47	0.55	56.3	4.5	83.6	0.23	–	–
B4	0.1	–	–	1.21	0.12	145	2.7	335	< 0.1	0.03	< 0.1
B5	0.64	–	–	9.48	0.01	144	18	319	–	0.11	0.02
B6	–	0.46	1.12	–	–	-3.4	0.5	-1.5	–	0.02	–
B7	–	0.1	0.21	–	–	-3.2	0.3	-1.9	–	0.06	–
B8	–	> 20	6.56	–	–	1.7	–	1	–	0.86	–
B9	–	> 20	8.06	–	–	9.5	–	13.8	–	0.69	–
